{
  "source": "paper PMC10696552",
  "key": {"purified protein [1]": {"substrate": "N[C@@H](CS)C(=O)O", "assay": "purified protein", "conditions": "co-substrate L-His; 23 °C"}, "purified protein [2]": {"substrate": "N[C@@H](Cc1c[nH]cn1)C(=O)O", "assay": "purified protein", "conditions": "co-substrate L-Cys"}, "[3]": {"substrate": "N[C@@H](CS)C(=O)O", "assay": "O2 consumption, NeoFoxy oxygen electrode", "type": "biochemical, Hydrogenimonas thermophila", "conditions": "co-substrate L-His, 23 °C"}, "[4]": {"substrate": "C[N+](C)(C)[C@@H](Cc1cnc[nH]1)C(=O)[O-]", "assay": "O2 consumption, NeoFoxy oxygen electrode", "type": "biochemical, Hydrogenimonas thermophila", "conditions": "co-substrate L-Cys, 23 °C"}, "[5]": {"substrate": "N[C@@H](Cc1c[nH]cn1)C(=O)O", "assay": "O2 consumption, NeoFoxy oxygen electrode", "type": "biochemical, Hydrogenimonas thermophila", "conditions": "co-substrate L-Cys, 23 °C"}},
  "data": [
    {"protein": "OvoATh2 (Hydrogenimonas thermophila; Y399F) (protein) NKILLRPLLLKQKNPENLRQLIKKSFHRTFDTFESLFSMLRNDEAFYNRPEPLRHPHIFYFGHTAVFFINKLILSKIIDTRINAKMESIFAIGVDEMSWDDLNDDHYEWPSVEETRLYRNRVREVVDNLINTLPLELPITWDSPWWIILMGIEHERIHIETSSVLIRQTDISLVLPQPEWSKCNVSGKAPENELLFVPGGEIEIGKYKSDDYYGWDNEYGKHKTVIPDFKASKYLVSNGEFMEFVKDGGYENDLWWEEEGLAWRNFKKAKHPIFWIPFKNEYRYRTLTEIVDMPLDWPVDVNYHEAKAFCNWLSAKKGKPIRLPVEDEWYRLKEYCNVPDVSKWDEKAPANINLEHYASACPVTQFSFGNFYDVIGNVWQWTETPIYPFNGFKIHPIFDDFSTPTFDNRHNLIKGGSFISTGNEILASSRYAFRRHFFQHAGFRYVESSYKEKINSSGYESDTQVSQYCEFGWGDRYFGIENYPKRCAKICIEVTEGKPRKKALDVGCAIGRSTLELATSFESVTGLDFSARFIEMAERMRKDGSIRYTITTEGELVEYKEATLPKRLAKVVDRVEFWQADACNLKPIFTGYDLVFAGNLIDRLYDPAKFLNDIGKRINSGGMLILTSPYTWLEEFTPKQKWLGGFKQDGEPVKSIDGLKSHLKDSFKLIETRDIEFVIRETARKFQHSVAQMSIWEKI", "values": [
      {"measurement": "Km", "setting": "purified protein [1]", "result": "575.2 ± 22.0", "unit": "µM"},
      {"measurement": "kcat", "setting": "purified protein [1]", "result": "361.2 ± 5.9", "unit": "min^–1"},
      {"measurement": "kcat/Km", "setting": "purified protein [1]", "result": 10500, "unit": "M⁻¹ s⁻¹"},
      {"measurement": "Km", "setting": "purified protein [2]; 23 °C", "result": "38.2 ± 2.6", "unit": "µM"},
      {"measurement": "kcat", "setting": "purified protein [2]; 23 °C", "result": "361.2 ± 5.9", "unit": "min^–1"}
    ]},
    {"protein": "OvoATh2 (Hydrogenimonas thermophila) (protein) NKILLRPLLLKQKNPENLRQLIKKSFHRTFDTFESLFSMLRNDEAFYNRPEPLRHPHIFYFGHTAVFFINKLILSKIIDTRINAKMESIFAIGVDEMSWDDLNDDHYEWPSVEETRLYRNRVREVVDNLINTLPLELPITWDSPWWIILMGIEHERIHIETSSVLIRQTDISLVLPQPEWSKCNVSGKAPENELLFVPGGEIEIGKYKSDDYYGWDNEYGKHKTVIPDFKASKYLVSNGEFMEFVKDGGYENDLWWEEEGLAWRNFKKAKHPIFWIPFKNEYRYRTLTEIVDMPLDWPVDVNYHEAKAFCNWLSAKKGKPIRLPVEDEWYRLKEYCNVPDVSKWDEKAPANINLEHYASACPVTQFSFGNFYDVIGNVWQWTETPIYPFNGFKIHPIYDDFSTPTFDNRHNLIKGGSFISTGNEILASSRYAFRRHFFQHAGFRYVESSYKEKINSSGYESDTQVSQYCEFGWGDRYFGIENYPKRCAKICIEVTEGKPRKKALDVGCAIGRSTLELATSFESVTGLDFSARFIEMAERMRKDGSIRYTITTEGELVEYKEATLPKRLAKVVDRVEFWQADACNLKPIFTGYDLVFAGNLIDRLYDPAKFLNDIGKRINSGGMLILTSPYTWLEEFTPKQKWLGGFKQDGEPVKSIDGLKSHLKDSFKLIETRDIEFVIRETARKFQHSVAQMSIWEKI", "values": [
      {"measurement": "Km", "setting": "[3]", "result": "278.6 ± 9.0", "unit": "µM"},
      {"measurement": "kcat", "setting": "[3]", "result": "589.0 ± 3.5", "unit": "min^–1"},
      {"measurement": "kcat/Km", "setting": "[3]", "result": "35000 ± 1500", "unit": "M⁻¹ s⁻¹"},
      {"measurement": "Km", "setting": "[4]", "result": "61.9 ± 3.5", "unit": "µM"},
      {"measurement": "kcat", "setting": "[4]", "result": "127.2 ± 1.5", "unit": "min^–1"},
      {"measurement": "Km", "setting": "[5]", "result": "585.1 ± 28.0", "unit": "µM"},
      {"measurement": "kcat", "setting": "[5]", "result": "589.0 ± 3.5", "unit": "min^–1"}
    ]},
    {"protein": "OvoATh2 (Hydrogenimonas thermophila; Y399F/Y61F) (protein) NKILLRPLLLKQKNPENLRQLIKKSFHRTFDTFESLFSMLRNDEAFYNRPEPLRHPHIFFFGHTAVFFINKLILSKIIDTRINAKMESIFAIGVDEMSWDDLNDDHYEWPSVEETRLYRNRVREVVDNLINTLPLELPITWDSPWWIILMGIEHERIHIETSSVLIRQTDISLVLPQPEWSKCNVSGKAPENELLFVPGGEIEIGKYKSDDYYGWDNEYGKHKTVIPDFKASKYLVSNGEFMEFVKDGGYENDLWWEEEGLAWRNFKKAKHPIFWIPFKNEYRYRTLTEIVDMPLDWPVDVNYHEAKAFCNWLSAKKGKPIRLPVEDEWYRLKEYCNVPDVSKWDEKAPANINLEHYASACPVTQFSFGNFYDVIGNVWQWTETPIYPFNGFKIHPIFDDFSTPTFDNRHNLIKGGSFISTGNEILASSRYAFRRHFFQHAGFRYVESSYKEKINSSGYESDTQVSQYCEFGWGDRYFGIENYPKRCAKICIEVTEGKPRKKALDVGCAIGRSTLELATSFESVTGLDFSARFIEMAERMRKDGSIRYTITTEGELVEYKEATLPKRLAKVVDRVEFWQADACNLKPIFTGYDLVFAGNLIDRLYDPAKFLNDIGKRINSGGMLILTSPYTWLEEFTPKQKWLGGFKQDGEPVKSIDGLKSHLKDSFKLIETRDIEFVIRETARKFQHSVAQMSIWEKI", "values": [
      {"measurement": "Km", "setting": "purified protein [2]", "result": "31.3 ± 4.0", "unit": "µM"},
      {"measurement": "kcat", "setting": "purified protein [2]", "result": "14.8 ± 0.3", "unit": "min^–1"}
    ]},
    {"protein": "OvoATh2 (Hydrogenimonas thermophila; Y61F) (protein) NKILLRPLLLKQKNPENLRQLIKKSFHRTFDTFESLFSMLRNDEAFYNRPEPLRHPHIFFFGHTAVFFINKLILSKIIDTRINAKMESIFAIGVDEMSWDDLNDDHYEWPSVEETRLYRNRVREVVDNLINTLPLELPITWDSPWWIILMGIEHERIHIETSSVLIRQTDISLVLPQPEWSKCNVSGKAPENELLFVPGGEIEIGKYKSDDYYGWDNEYGKHKTVIPDFKASKYLVSNGEFMEFVKDGGYENDLWWEEEGLAWRNFKKAKHPIFWIPFKNEYRYRTLTEIVDMPLDWPVDVNYHEAKAFCNWLSAKKGKPIRLPVEDEWYRLKEYCNVPDVSKWDEKAPANINLEHYASACPVTQFSFGNFYDVIGNVWQWTETPIYPFNGFKIHPIYDDFSTPTFDNRHNLIKGGSFISTGNEILASSRYAFRRHFFQHAGFRYVESSYKEKINSSGYESDTQVSQYCEFGWGDRYFGIENYPKRCAKICIEVTEGKPRKKALDVGCAIGRSTLELATSFESVTGLDFSARFIEMAERMRKDGSIRYTITTEGELVEYKEATLPKRLAKVVDRVEFWQADACNLKPIFTGYDLVFAGNLIDRLYDPAKFLNDIGKRINSGGMLILTSPYTWLEEFTPKQKWLGGFKQDGEPVKSIDGLKSHLKDSFKLIETRDIEFVIRETARKFQHSVAQMSIWEKI", "values": [
      {"measurement": "Km", "setting": "purified protein [2]", "result": "50.9 ± 2.5", "unit": "µM"},
      {"measurement": "kcat", "setting": "purified protein [2]", "result": "23.4 ± 0.2", "unit": "min^–1"}
    ]}
  ]
}
